From the supplement of paper PMC7125110
± gives the standard error. Variants at the floor of the assay were thinned out.

B1: glmS ribozyme (parent)
chain: AUAAAAGCGCCAGAACUACAGAAAUGUAGUUGACGAGGAGGAGGUUUAUCGAAUUUUCGGCGGAUGCCUCCAAA

Columns and labels:
Conditions in all cases: with glucosamine-6-phosphate
[1] = variants of: B1; test: self-cleavage kobs at 160 uM GlcN6P; higher = faster cleavage; RNA array
Procedure, shortened: (§1)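 E. coli RNA polymerase transcribed barcoded ribozyme variants in situ on sequenced MiSeq chips, which were tracked via a hybridised Cy3 probe at 37 °C. Tiles were imaged over ~14 h after glucosamine-6-phosphate (40 μM to 10 mM) in HEPES/KCl/Mg(OAc)2 buffer was flowed in. Normalised per-tile medians were fit to one- or two-exponential decays for kobs, and kcat and KM came from weighted Michaelis–Menten fits.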

[2] = variants of: B1; test: self-cleavage kobs at 640 uM GlcN6P; higher = faster cleavage; RNA array
Procedure, shortened: as §1

[3] = variants of: B1; test: self-cleavage kobs at 2500 uM GlcN6P; higher = faster cleavage; RNA array
Procedure, shortened: as §1

[4] = variants of: B1; test: self-cleavage kobs at 10000 uM GlcN6P; higher = faster cleavage; RNA array
Procedure, shortened: as §1

| Variant | self-cleavage kobs at 160 uM GlcN6P [1] [s⁻¹] | self-cleavage kobs at 640 uM GlcN6P [2] [s⁻¹] | self-cleavage kobs at 2500 uM GlcN6P [3] [s⁻¹] | self-cleavage kobs at 10000 uM GlcN6P [4] [s⁻¹] |
| --- | --- | --- | --- | --- |
| G29A G41U A53C C58A | < 1e-05 | < 1e-05 | < 1e-05 | – |
| C16U U31C C68U | 6.38e-05 ± 2.3e-05 | 0.000149 ± 3.2e-05 | 0.00018 ± 4e-05 | – |
| G9U A33U A53G G66U | < 1e-05 | – | – | – |
| U2C G9U C58U | < 1e-05 | – | – | < 1e-05 |
| G40U G43C C68G | 0.000486 ± 0.00015 | 0.000552 ± 0.00012 | 0.00105 ± 0.00026 | – |
| G59U G60U G62A | < 1e-05 | – | < 1e-05 | – |
| U31A A52C | < 1e-05 | – | < 1e-05 | – |
| G7A G59C | < 1e-05 | < 1e-05 | – | – |
| G9A A36U C68U | < 1e-05 | < 1e-05 | – | – |
| U30A U54A C67U C68A | 3.56e-05 ± 1.7e-05 | – | 4.46e-05 ± 2.1e-05 | – |
| G40U U45A U56G | 6.56e-05 ± 1.6e-05 | – | 0.000611 ± 0.00014 | – |
| C34U U56C | < 1e-05 | < 1e-05 | < 1e-05 | < 1e-05 |
| G60A C61U | < 1e-05 | < 1e-05 | < 1e-05 | < 1e-05 |
| C11A A36U U56A C68G C70A | 6.51e-05 ± 2.8e-05 | 0.000823 ± 0.0003 | – | 4.16e-05 ± 1.8e-05 |
| C16A G35C U47G | < 1e-05 | – | < 1e-05 | – |
| C34U G35C | < 1e-05 | – | < 1e-05 | < 1e-05 |
| A48C C58G C71A | < 1e-05 | < 1e-05 | – | – |
| G32A G51C | < 1e-05 | < 1e-05 | < 1e-05 | – |
| A36U U46A | < 1e-05 | < 1e-05 | < 1e-05 | < 1e-05 |
| U31A G62C C71U | < 1e-05 | < 1e-05 | – | – |
| C8G U30G G37A G66A U69G | 0.000132 ± 4.9e-05 | 0.000166 ± 6e-05 | – | – |
| G9C U46G C67G | < 1e-05 | – | – | – |
| A36U U57G | < 1e-05 | – | < 1e-05 | < 1e-05 |
| C10U A12G G35C | < 1e-05 | – | – | – |
| A12G G35A | < 1e-05 | < 1e-05 | – | < 1e-05 |
| A14C C16G G38A A48G U49A | < 1e-05 | – | – | – |

| Variant | self-cleavage kobs at 160 uM GlcN6P [1] [s⁻¹] | self-cleavage kobs at 640 uM GlcN6P [2] [s⁻¹] | self-cleavage kobs at 2500 uM GlcN6P [3] [s⁻¹] | self-cleavage kobs at 10000 uM GlcN6P [4] [s⁻¹] |
| --- | --- | --- | --- | --- |
| G9U G43A G66U | < 1e-05 | – | < 1e-05 | – |
| A6G A15U A52U | < 1e-05 | < 1e-05 | < 1e-05 | – |
| C11A A15G U69G | 0.000139 ± 6.4e-05 | 0.000293 ± 0.0001 | 0.000159 ± 4.9e-05 | – |
| G9U G32C | < 1e-05 | < 1e-05 | – | < 1e-05 |
| G41A G51U | < 1e-05 | < 1e-05 | < 1e-05 | < 1e-05 |
| C11A A14C U31G U65G | < 1e-05 | – | – | 2.62e-05 ± 1.2e-05 |
| C50U C70G | 0.000293 ± 0.00013 | 8.51e-05 ± 1.6e-05 | 6.07e-05 ± 1.3e-05 | – |
| A33U G38A A48G G66U U69G | 4.81e-05 ± 1.6e-05 | 0.000108 ± 2.9e-05 | – | – |
| C8U U56A | < 1e-05 | < 1e-05 | < 1e-05 | – |
| C10U A12G U31A A36C C58A | < 1e-05 | – | – | – |
| U46G U49G G63A A64C | < 1e-05 | < 1e-05 | < 1e-05 | – |
| A36U G40U | < 1e-05 | < 1e-05 | – | < 1e-05 |
| U30G A39U A42U | 0.000126 ± 5.7e-05 | – | – | – |
| C8G U56A G62U | < 1e-05 | < 1e-05 | < 1e-05 | – |
| C10U A12U G44A U49C C70G | < 1e-05 | < 1e-05 | < 1e-05 | – |
| U30G G63A | < 1e-05 | < 1e-05 | < 1e-05 | < 1e-05 |
| C10U U65G | < 1e-05 | – | – | – |
| G29A G35C | < 1e-05 | < 1e-05 | < 1e-05 | < 1e-05 |
| C8U G29U G41A G44C | < 1e-05 | – | – | – |
| A15G G29U C34U | < 1e-05 | – | – | – |
| G38C U46G A64U | < 1e-05 | < 1e-05 | – | – |
| A33C G59A | < 1e-05 | < 1e-05 | < 1e-05 | – |
| C8G G59A C70G | < 1e-05 | – | – | – |
| A36C U49A C70U | 4.96e-05 ± 2e-05 | – | – | – |
| A15G G38A G60U C70G | < 1e-05 | – | < 1e-05 | – |
